pKd: −log10 of the molar value.
Assays:
[1] = target: His-tagged human FcγRIIIA (V176) (human) (UniProt P08637); assay: SPR steady-state, His-captured receptor, 25 C
[2] = target: His-tagged cynomolgus FcγRIIB (cynomolgus); assay: SPR steady-state, His-captured receptor, 25 C
[3] = target: His-tagged cynomolgus FcγRIIA (cynomolgus); assay: SPR steady-state, His-captured receptor, 25 C
[4] = target: His-tagged human FcγRIIIB (human) (UniProt O75015); assay: SPR steady-state, His-captured receptor, 25 C
[5] = target: His-tagged cynomolgus FcγRIIIA (cynomolgus) (UniProt Q8SPW2); assay: SPR steady-state, His-captured receptor, 25 C
[6] = target: His-tagged human FcγRIIIA (F176) (human) (UniProt P08637); assay: SPR steady-state, His-captured receptor, 25 C
[7] = target: His-tagged human FcγRIIA (H131) (human) (UniProt P12318); assay: SPR steady-state, His-captured receptor, 25 C
[8] = target: His-tagged human FcγRI (human) (UniProt P12314); assay: SPR (Biacore T200), His-tagged receptor captured by anti-penta-His, antibody injected, 25 C
[9] = target: His-tagged human FcγRIIA (R131) (human) (UniProt P12318); assay: SPR steady-state, His-captured receptor, 25 C
[10] = target: His-tagged human FcγRIIB (human) (UniProt P31994); assay: SPR steady-state, His-captured receptor, 25 C
Sequence of His-tagged human FcγRIIB (human) (P31994 46-217 limits assumed): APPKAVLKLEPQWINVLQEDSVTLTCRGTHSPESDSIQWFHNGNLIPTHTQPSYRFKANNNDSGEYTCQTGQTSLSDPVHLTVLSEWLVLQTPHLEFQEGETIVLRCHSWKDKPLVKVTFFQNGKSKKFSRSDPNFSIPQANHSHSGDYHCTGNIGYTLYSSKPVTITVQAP

Sequence of His-tagged human FcγRI (human) (P12314 16-288 limits assumed): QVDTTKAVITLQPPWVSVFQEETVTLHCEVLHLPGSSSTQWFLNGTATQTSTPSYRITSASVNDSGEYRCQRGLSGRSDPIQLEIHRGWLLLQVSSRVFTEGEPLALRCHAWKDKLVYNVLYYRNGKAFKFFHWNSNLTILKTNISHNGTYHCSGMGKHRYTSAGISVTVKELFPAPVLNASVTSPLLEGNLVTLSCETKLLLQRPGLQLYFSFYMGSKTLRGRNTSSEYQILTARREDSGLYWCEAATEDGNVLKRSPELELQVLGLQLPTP
Sequence of His-tagged human FcγRIIIA (F176) (human) (P08637 17-208 limits assumed): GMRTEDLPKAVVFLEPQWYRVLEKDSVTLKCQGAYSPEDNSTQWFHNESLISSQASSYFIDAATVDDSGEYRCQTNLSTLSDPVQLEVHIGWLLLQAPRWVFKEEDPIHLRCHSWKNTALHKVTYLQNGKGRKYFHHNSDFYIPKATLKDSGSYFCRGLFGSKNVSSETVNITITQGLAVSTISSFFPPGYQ
Sequence of His-tagged cynomolgus FcγRIIIA (cynomolgus) (Q8SPW2 17-208 limits assumed): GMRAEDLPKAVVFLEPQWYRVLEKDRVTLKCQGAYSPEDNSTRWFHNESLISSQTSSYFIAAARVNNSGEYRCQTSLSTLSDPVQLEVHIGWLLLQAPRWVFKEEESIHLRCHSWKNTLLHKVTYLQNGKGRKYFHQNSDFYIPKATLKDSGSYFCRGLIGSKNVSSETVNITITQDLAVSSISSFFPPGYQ
Sequence of His-tagged human FcγRIIIA (V176) (human) (P08637 17-208 F176V limits assumed): as the sequence (P08637 17-208 limits assumed) above, with F160V counted along it
Sequence of His-tagged human FcγRIIA (H131) (human) (P12318 36-218 limits assumed): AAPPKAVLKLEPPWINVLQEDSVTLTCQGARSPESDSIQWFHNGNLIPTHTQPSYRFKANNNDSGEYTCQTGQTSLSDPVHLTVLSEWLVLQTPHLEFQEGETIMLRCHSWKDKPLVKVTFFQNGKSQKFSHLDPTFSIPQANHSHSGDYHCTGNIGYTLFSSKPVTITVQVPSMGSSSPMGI
Sequence of His-tagged human FcγRIIA (R131) (human) (P12318 36-218 H167R limits assumed): as the sequence (P12318 36-218 limits assumed) above, with H132R counted along it
Sequence of His-tagged human FcγRIIIB (human) (O75015 17-200 limits assumed): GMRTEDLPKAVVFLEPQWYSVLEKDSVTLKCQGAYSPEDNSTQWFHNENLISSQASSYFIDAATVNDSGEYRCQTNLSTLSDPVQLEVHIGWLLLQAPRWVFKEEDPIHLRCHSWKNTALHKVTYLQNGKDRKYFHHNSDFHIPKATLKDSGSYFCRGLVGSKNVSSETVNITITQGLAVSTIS

pKd [1] | pKd [2] | pKd [3] | pKd [4] | pKd [5] | pKd [6] | pKd [7] | pKd [8] | T1/2 [8] [min] | pKd [9] | pKd [10] | koff [8] [s⁻¹] | kon [8] [M⁻¹ s⁻¹] | Substance
5.82 | 5.38 | 5.38 | 5.64 | 6.22 | 5.89 | 5.96 | 8.37 | 15 | – | – | – | – | Wild-type IgG1 Isotype Control (antibody)
5.00 | 5.02 | 4.71 | – | 5.24 | 4.59 | 4.92 | 7.86 | 5 | 5.00 | 5.01 | 0.00236 | 171000 | Wild-type IgG4 "CPPC" Isotype Control (antibody)
